Measured values as given in US9879306B2, “Luciferase biosensors for cAMP” (PROMEGA CORPORATION, priority 2008, dated 2018).
Positions count from the first letter of the chain named. Numbers in names are those of the source.

B1: 15H6: 7A1 biosensor with F433Y, M493V in Luc2.0 and modified linker …; SEQ ID NO:107, 108 (protein)
chain: MPGAVGKVVPFFEAKVVDLDTGKTLGVNQRGELCVRGPMIMSGYVNNPEATNALIDKDGWLHSGDIAYWDEDEHFYIVDRLKSLIKYKGYQVAPAELESILLQHPNIFDAGVAGLPDDDAGELPAAVVVLEHGKTVTEKEIVDYVASQVTTAKKLRGGVVFVDEVPKGLTGKLDARKIREILIKAKKGSNWDSGCSRECMYESFIESLPFLKSLEFSARLKVVDVIGTKVYNDGEQIIAQGDSADSFFIIESGEVKITMKRKGKSEVEENGAVEIARCSRGQYFGELALVTNKPRAASAHAIGTVKCLAMDVQAFERLLGPCMEIMKRNIATYEEQLVALFGTNMDIVAKNIKKGPAPFYPLEDGTAGEQLHKAMKRYALVPGTIAFTDAHIEVDITYAEYFEMSVRLAEAMKRYGLNTNHRIVVCSENSLQFFMPVLGALFIGVAVAPANDIYNERELLNSMGISQPTVVFVSKKGLQKILNVQKKLPIIQKIIIMDSKTDYQGFQSMYTFVTSHLPPGFNEYDFVPESFDRDKTIALIMNSSGSTGLPKGVALPHRTACVRFSHARDPIFGNQIIPDTAILSVVPFHHGFGMFTTLGYLICGFRVVLMYRFEEELFLRSLQDYKIQSALLVPTLFSFFAKSTLIDKYDLSNLHEIASGGAPLSKEVGEAVAKRFHLPGIRQGYGLTETTSAILITPEGV
notes: 7A1 biosensor with F433Y, M493V in Luc2.0 and modified linker …
B2: 1B3: 7A1 biosensor with A338E in RIIβb; SEQ ID NO:33, 34 (protein)
chain: B1 chain with Y76F, V136M, C199G, A272E
B3: 16B3: 7A1 biosensor with S440N in Luc2.0; SEQ ID NO:72, 73 (protein)
chain: B1 chain with Y76F, S83N, V136M, C199G
B4: 9G4: 7A1 biosensor with E382K in RIIβb; SEQ ID NO:37, 38 (protein)
chain: B1 chain with Y76F, V136M, C199G, E316K
B5: L9-ILY: L9 background with Luc2.0 F369I, F518L and RIIβB F407Y; SEQ ID NO:82, 83 (protein)
chain: MPGAVGKVVPFIEAKVVDLDTGKTLGVNQRGELCVRGPMIMSGYVNNPEATNALIDKDGWLHSGDIAYWDEDEHFFIVDRLKSLIKYKGYQVAPAELESILLQHPNIFDAGVAGLPDDDAGELPAAVVVLEHGKTMTEKEIVDYVASQVTTAKKLRGGVVLVDEVPKGLTGKLDARKIREILIKAKKGSIAGCGDAGEGMYESFIESLPILKSLEFSARLKVVDVIGTKVYNDGEQIIAQGDSADSFYIIESGEVKITMKRKGKSEVEENGAVEIARCSRGQYFGELALVTNKPRAASAHAIGTVKCLAMDVQAFERLLGPCMEIMKRNIATYEEQLVALYGTNMDIVAKNIKKGPAPLYPLEDGTAGEQLHKAMKRYALVPGTIAFTDAHIEVDITYAEYFEMSVRLAEAMKRYGLNTNHRIVVCSENSLQFFMPVLGALFIGVAVAPANDIYNERELLNSMGISQPTVVFVSKKGLQKILNVQKKLPIIQKIIIMDSKTDYQGFQSMYTFVTSHLPPGFNEYDFVPESFDRDKTIALIMNSSGSTGLPKGVALPHRTACVRFSHARDPIFGNQIIPDTAILSVVPFHHGFGMFTTLGYLICGFRVVLMYRFEEELFLRSLQDYKIQSALLVPTLFSFFAKSTLIDKYDLSNLHEIASGGAPLSKEVGEAVAKRFHLPGIRQGYGLTETTSAILITPEGV
B6: L9-ILQY: L9 background with Luc2.0 F369I, F518L, K541Q and RIIβB F407Y; SEQ ID NO:80, 81 (protein)
chain: B5 chain with K184Q, I210F, Y248F, L359F

System: HEK293 cells
Assay: Luminescence and fold response of biosensor clones in HEK293 cells after isoproterenol or FSK
Assay type: cell-based
Conditions: 5 minutes after isoproterenol
Procedure: B. HEK293 cells were transiently transfected with plasmid DNAs encoding various biosensor mutants as above. These biosensor mutants contained the E284A and V316I mutation in the RIIbetaB cAMP binding domain and the modified linker sequence 7A1 (GSNWDSGCSREG; SEQ ID NO: 129). The clones also contained the additional mutations outlined in Table 5. Cells were equilibrated for 2 hours at room temperature with 2 mM EF-Luc. Luminescence was measured 5 and 15 minutes after addition of the isoproterenol and 15 minutes after addition of FSK. Fold response (response; Resp.) was calculated by dividing relative light units (RLUs) from induced cells by the RLUs from uninduced cells. As a control, the biosensor GS358 and 7A1 were included.

Molecule	Isoproterenol-5 minutes Induced [RLU]
B1	91567
B2	59767
B3	72003
B4	27930

Same assay, conditions: 15 minutes after FSK

Molecule	Forskolin (FSK) Induced [RLU]
B1	29500
B2	305500
B3	257605
B4	263020

Same assay, conditions: 15 minutes after isoproterenol

Molecule	Isoproterenol-15 minutes Induced [RLU]
B1	244700
B2	344375
B3	248415
B4	264500

Same assay, conditions: RLU induced / RLU uninduced, 5 minutes after isoproterenol

Molecule	Isoproterenol-5 minutes Resp [fold]
B1	85
B2	36
B3	35
B4	50

Same assay, conditions: RLU induced / RLU uninduced, 15 minutes after FSK

Molecule	Forskolin (FSK) Resp [fold]
B1	57
B2	47
B3	39
B4	46

Same assay, conditions: RLU induced / RLU uninduced, 15 minutes after isoproterenol

Molecule	Isoproterenol-15 minutes Resp [fold]
B1	61
B2	53
B3	38
B4	46

Same assay, conditions: uninduced cells, 5 minutes

Molecule	Isoproterenol-5 minutes Uninduced [RLU]
B1	1073
B2	1673
B3	2063
B4	553

Same assay, conditions: uninduced cells, 15 minutes

Molecule	Forskolin (FSK) Uninduced [RLU]	Isoproterenol-15 minutes Uninduced [RLU]
B1	4040	4040
B2	6460	6460
B3	6555	6555
B4	5760	5760

Target: T1, dopamine D2 receptor (Homo sapiens, UniProt P14416)
T1 construct: expressed in transfected cells
T1 sequence (P14416 whole entry, species assumed): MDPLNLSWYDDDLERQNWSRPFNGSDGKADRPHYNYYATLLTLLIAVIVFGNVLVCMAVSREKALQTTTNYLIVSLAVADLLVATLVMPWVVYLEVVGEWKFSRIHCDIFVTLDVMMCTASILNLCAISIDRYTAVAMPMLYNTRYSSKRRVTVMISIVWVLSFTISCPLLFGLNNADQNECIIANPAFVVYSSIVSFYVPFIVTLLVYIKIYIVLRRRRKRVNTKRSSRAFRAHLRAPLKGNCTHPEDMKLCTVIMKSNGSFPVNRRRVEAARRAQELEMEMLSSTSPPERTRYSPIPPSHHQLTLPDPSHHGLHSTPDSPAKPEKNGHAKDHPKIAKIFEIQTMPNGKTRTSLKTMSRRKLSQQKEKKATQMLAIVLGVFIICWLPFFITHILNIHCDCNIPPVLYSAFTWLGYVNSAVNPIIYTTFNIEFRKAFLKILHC
Assay: Forskolin, dopamine and haloperidol responses of biosensor clones in HEK293 cells stably expressing the dopamine D2 receptor
Assay type: cell-based
Conditions: 3 μM FSK + 0.3 μM dopamine, 10 minutes
Source text: To measure changes in the intracellular concentration of cAMP, HEK293 cells are transiently transfected with mutant cAMP biosensors followed by treatment with compounds known to increase or decrease the intracellular cAMP concentration through GPCR activation of Gs- or Gi-coupled receptors, respectively.
HEK293 cells stably expressing the dopamine D2 receptor were transiently transfected with the mutant cAMP biosensors from Example VIIB. Cells were also transfected with either 7A1 (Example III) or GS358 (parent biosensor) as controls. Cells were equilibrated for 2 hours at room temperature using 2 mM EF-luc. Antagonist assay wells were pre-treated for 10-15 minutes at room temperature with 10 μM Haloperidol (Halo). Next, the following reagents were added to their respective wells: media alone to “untreated” samples; 3 μM forskolin (FSK) to “forskolin-treated” samples; 3 μM FSK+0.3 μM dopamine to “agonist-treated” samples; and 3 μM FSK+0.3 μM dopamine to the aforementioned wells pre-treated with Halo. The cells were then incubated at room temperature for 10 minutes and luminescence was measured. Fold response for FSK was calculated by dividing the RLU from “forskolin-treated” cells by the RLU from the “untreated” cells. Fold response for dopamine treatment was calculated by dividing the RLU from the “agonist-treated” cells by the RLU from the “forskolin-treated” cells. Fold response for Haloperidol treatment was calculated by dividing the RLU from the cells treated with haloperidol then forskolin plus dopamine by the RLU of cells treated with forskolin plus dopamine alone.

Molecule	Dopamine Induced [RLU]
B1	30
B2	1898
B3	3050
B4	1735

Same assay, conditions: 3 μM FSK, 10 minutes

Molecule	Forskolin (FSK) Induced [RLU]
B1	7177
B2	8410
B3	6400
B4	4133

Same assay, conditions: 10 μM Haloperidol pre-treatment, then 3 μM FSK + 0.3 μM dopamine

Molecule	Halo Induced [RLU]
B1	65
B2	5228
B3	6188
B4	4370

Same assay, conditions: RLU agonist-treated / forskolin-treated

Molecule	Dopamine Response [fold]
B1	0.56
B2	0.23
B3	0.48
B4	0.42

Same assay, conditions: RLU forskolin-treated / untreated

Molecule	Forskolin (FSK) Response [fold]
B1	25
B2	18
B3	17
B4	14

Same assay, conditions: RLU haloperidol then FSK + dopamine / FSK + dopamine alone

Molecule	Halo Response [fold]
B1	2.2
B2	2.8
B3	2.0
B4	2.5

Same assay, conditions: untreated (media alone), 10 minutes

Molecule	Forskolin (FSK) Uninduced [RLU]
B1	283
B2	460
B3	370
B4	293

Target: T2, GPR41 (Homo sapiens, UniProt O14843)
T2 sequence (O14843 1-346): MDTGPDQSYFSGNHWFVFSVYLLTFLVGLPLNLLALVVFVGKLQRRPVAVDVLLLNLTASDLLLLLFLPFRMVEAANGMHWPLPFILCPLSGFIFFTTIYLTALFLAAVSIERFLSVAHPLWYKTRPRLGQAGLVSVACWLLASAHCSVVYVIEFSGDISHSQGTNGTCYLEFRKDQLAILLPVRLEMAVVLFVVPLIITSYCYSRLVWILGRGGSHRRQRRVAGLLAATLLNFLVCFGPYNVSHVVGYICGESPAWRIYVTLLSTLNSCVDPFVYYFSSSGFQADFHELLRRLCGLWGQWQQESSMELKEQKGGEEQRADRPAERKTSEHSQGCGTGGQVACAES
Assay: Sodium proprionate CRC with biosensor variants in HEK293 cells stably expressing GPR41
Assay type: cell-based
Conditions: with FSK 1 μM
Procedure: (§1) After 24 hours, the cells were transiently transfected with one of the cAMP biosensor variants (Tables 7A and 7B). After another 24 hours, the cells were equilibrated for 2 hours at room temperature using 5 mM EF-luc in CO2 independent media with 10% FBS. Prior to the addition of the compounds, luminescence was measured. The compounds (12× stock in CO2 independent media without FBS) were then added to the cells. For GPR41 expressing cells, sodium proprionate CRC was added. […] The cells were allowed to incubate another 30 minutes and luminescence read on a Varioskan Flash. EC50 values and fold responses were calculated for each of the clones with each of the compounds with or without FSK. In addition, variants […]7 (Example VIIB), 16A2 (Example VIIB) and GS358 were also screened.

Molecule	Fold Response Na proprionate + FSK(1 μM) [fold]
B5	4.91

Same assay, conditions: without FSK, ratio of induced to uninduced signal

Molecule	Fold Response Na proprionate [fold]
B5	3.34

System: GPR41
Assay: as above
Assay type: cell-based
Conditions: ratio of RLU of FSK treated well to untreated well
Procedure: as §1

Molecule	Fold Signal Change [fold]
B5	161.2
B6	152.7
